This data set is described as follows: protein stability index of a GFP-peptide fusion (GPS, HEK-293T) (PSI 1-6); higher = more stable. Particulars: c terminus: a fixed tail appended.

± gives the standard deviation.
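Further: 24-mer peptide tiles fused after GFP, lentivirally expressed, FACS-sorted into six equal bins by GFP/DsRed ratio, decoded by Illumina sequencing, PSI is the read-weighted mean bin number.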

For AAAAKAFKHPSIRNPVSLVVTRLV [ADAMTS4], the protein stability index came out at 2.22 ± 0.49 (treatment: DMSO) and 2.67 ± 0.48 (treatment: MLN4924 1 uM, 8 h).
For the sequence AAAAMYTFLPDNFSPAKPKPSKEL [MYORG], the protein stability index reads like this: (treatment: DMSO) 3.62 ± 0.11; (treatment: MLN4924 1 uM, 8 h) 3.59 ± 0.3.
For AAAQAPENFQEGKDMSESQDEVPD [TAF7L], the protein stability index by setting is: (treatment: DMSO) 5.62 ± 0.24; (treatment: MLN4924 1 uM, 8 h) 5.58 ± 0.23.
For AAGVAAAFGAPIGGTLFSLEEGSS [CLCN6], in that order: 3.94 ± 0.09 and 3.97 ± 0.17.
AALIEAIQDRLSNTLQTYIRCRHP [VDR]: the protein stability index (treatment: DMSO) was determined as 2.49 ± 0.5 and the protein stability index (treatment: MLN4924 1 uM, 8 h) stood at 2.54 ± 0.32.
Consider AALLILFAASLLTVFAWLLQYARG [C2CD2L], for which the protein stability index was found to be 2.74 ± 0.46 (treatment: DMSO) and 3.15 ± 0.46 (treatment: MLN4924 1 uM, 8 h).
Regarding AALPPVPSPPAAPSVADNLLASSD [SERTAD1], the protein stability index by setting is: (treatment: DMSO) 5.46 ± 0.14; (treatment: MLN4924 1 uM, 8 h) 5.35 ± 0.3.
On the same counts, the results for AALQRSLAAALAQHSVPLQLELRA [TRADD] are 2.89 ± 1.2 and 2.46 ± 0.73.
On the same counts, the results for AAQAAAAAHAAQAHRERNEFPEDP [PI4K2A] are 5.36 ± 0.35 and 5.5 ± 0.1.
Take AARAGHVCTVQFLISKGANVNRTT [ANKRD17]: the protein stability index came out at 1.83 ± 0.32 (treatment: DMSO) and 2.07 ± 0.21 (treatment: MLN4924 1 uM, 8 h).
For ACHPFLLGPPLVRKRIHDSRVAGF [TOR1AIP2], in that order: 2.51 ± 0.39 and 2.5 ± 0.18.
As to ACMMTITFLPYTFSLMVTFPDVPL [TMEM175], the protein stability index was determined as 3.1 ± 0.09 (treatment: DMSO) and 3.26 ± 0.33 (treatment: MLN4924 1 uM, 8 h).
On the same counts, the results for ADGRIEPGDMLLQVNEINFENMSN [DVL3] are 3.95 ± 0.33 and 4.36 ± 0.32.
In turn, ADLWYLFGDLSLSLVTVGKHLTAR [POMT2] had a protein stability index (treatment: DMSO) of 3.17 ± 0.74 and a protein stability index (treatment: MLN4924 1 uM, 8 h) of 2.56 ± 0.8.
Turning to ADQKLVIIKQIPVEQMTKEERQAA [NEK8], the protein stability index runs as follows: (treatment: DMSO) 4.62 ± 0.24; (treatment: MLN4924 1 uM, 8 h) 4.61 ± 0.23.
For AEAERLDVKAMGPLVLTEVLFNEK [EIF5], in that order: 4.01 ± 0.2 and 4.17 ± 0.24.
For AEGSPGGPGDSQGRKRRQTSMTDF [CDKN1A], in that order: 5.23 ± 0.1 and 5.13 ± 0.22.
For AEKWQKEKDRIKSFTTNEKAILEQ [TRIM29], in that order: 4.76 ± 0.21 and 4.8 ± 0.22.
Turning to AEMLGSVVGNWQYFFPVIFSKASS [MAGEA3], the protein stability index runs as follows: (treatment: DMSO) 2.17 ± 0.31; (treatment: MLN4924 1 uM, 8 h) 2.21 ± 0.35.
AEPLKEDKPVTGPRNKTENGLTPK [ATF6] displayed a protein stability index (treatment: DMSO) of 5.5 ± 0.26 and a protein stability index (treatment: MLN4924 1 uM, 8 h) of 5.35 ± 0.18.
Regarding AESQGCNHEEDAGVRCNTPAMGLQ [LOXL2], the protein stability index was found to be 5.34 ± 0.27 (treatment: DMSO) and 5.29 ± 0.3 (treatment: MLN4924 1 uM, 8 h).
For AEVAPEERENVAVAKLQESQPGNA [SDE2], in that order: 5.49 ± 0.18 and 5.718 ± 0.056.
With AFPSGHLLDAHILEWHDSLFQILS [ZNF511], the protein stability index (treatment: DMSO) worked out at 2.35 ± 0.33 and the protein stability index (treatment: MLN4924 1 uM, 8 h) is 2.29 ± 0.3.
For AFQAFTNDLLEILEIDDLDAIVPA [CEP70], in that order: 2.73 ± 0.22 and 2.73 ± 0.5.
On the same counts, the results for AFVRMKQLIEEGYVGEPLVCEVQV [GFOD1] are 2.47 ± 0.77 and 2.55 ± 0.71.
On the same counts, the results for AGELRKPTQEEWRQVVDILWSDPM [PPEF2] are 3 ± 0.53 and 2.97 ± 0.082.
Regarding AGGAGRGEDEENREHRVRRIHVRR [KCTD13], the protein stability index stood at 5.19 ± 0.16 (treatment: DMSO) and 5.34 ± 0.28 (treatment: MLN4924 1 uM, 8 h).
For AIEIFRYSFYMLTCIDMDWKVLTW [HACD3], the protein stability index by setting is: (treatment: DMSO) 3.23 ± 0.4; (treatment: MLN4924 1 uM, 8 h) 2.57 ± 0.53.
On the same counts, the results for AILQNHTDFKDKIVLDVGCGSGIL [CARM1] are 2.31 ± 0.21 and 2.34 ± 0.25.
Consider AISITAIAKYSDGASKAAGVFGFF [CMTM3], for which the protein stability index stood at 2.96 ± 0.88 (treatment: DMSO) and 2.78 ± 0.4 (treatment: MLN4924 1 uM, 8 h).
In the case of AKGHVKLSDFGLCTGLKKAHRTEF [STK38L], the protein stability index amounted to 2.75 ± 0.21 (treatment: DMSO) and 2.61 ± 0.15 (treatment: MLN4924 1 uM, 8 h).
For AKNAAKDMNGKSLHGKAIKVEQAK [RBMY1A1], in that order: 4.64 ± 0.23 and 5.01 ± 0.53.
On to AKNQSDEAKEAKGSGYEKLGPSRD [RTP4], for which the protein stability index is, setting by setting: (treatment: DMSO) 5.47 ± 0.16; (treatment: MLN4924 1 uM, 8 h) 5.34 ± 0.26.
For AKQLFRKLNEQSPTRCTLEAGAMT [SEC22B], in that order: 2.45 ± 0.21 and 2.6 ± 0.17.
For ALENLQVEASCSVCLEYLKEPVII [TRIM39], in that order: 2.77 ± 1 and 2.95 ± 0.58.
For ALGCVMYTMLLGRPPFETTNLKET [PLK2], in that order: 2.72 ± 0.74 and 2.79 ± 1.1.

Values taken from the supplement of paper PMC10567573.
